Assays:
human FcRn/b2M [1] = biological target: T1, human FcRn/b2M (human, UniProt P61769 21-119, biotinylated); test: SPR pH 7.4;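 also: surface plasmon resonance kinetics, periplasmic extracts diluted 1:10 flowed over immobilized target at 25 °C, 120 s association then 600–3600 s dissociation, buffer with 150 mM NaCl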
T1 construct: bought recombinant biotinylated protein (ACRO FCM-H82W4 or Immunitrack ITF01); also called hFcRn; hFcRn/hb2M
Protocol: (§1) All kinetic measurements have been performed on ProteOn XPR36 (BioRad Laboratories, Inc.), MASS-2 (Sierra sensors, Gmbh) or SPR-32 (Bruker Corporation). […] The phytip purified periplasmic extracts were diluted 1:10 in running buffer (CPA+150 mM NaCl+0.005% Tw20 at pH 5.5, pH 6.0 or pH 7.4) and injected over the ligand surfaces (association: 120 s at 45 μL/min; dissociation: 600s-3600 s at 45 μL/min). Experiments were carried out at 25° C.

cyno FcRn/b2M [2] = biological target: T2, cyno FcRn/b2M (cyno, UniProt Q8SPV9 24-297; Q8SPW0 21-119, biotinylated); test: SPR pH 7.4;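 also: surface plasmon resonance kinetics, periplasmic extracts diluted 1:10 flowed over immobilized target at 25 °C, 120 s association then 600–3600 s dissociation, buffer with 150 mM NaCl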
T2 construct: bought recombinant biotinylated protein (Immunitrack ITF05 or ACRO FCM-C82W5); also called cFcRn; cFcRn/cb2M
Protocol: as §1

human FcRn/b2M [3] = biological target: T1, human FcRn/b2M; test: SPR pH 6.0;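 also: surface plasmon resonance kinetics at 25 °C, diluted periplasmic extracts injected over immobilized ligand surfaces, 120 s association then 600–3600 s dissociation, running buffer containing 150 mM NaCl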
Protocol: as §1

cyno FcRn/b2M [4] = biological target: T2, cyno FcRn/b2M; test: SPR pH 6.0;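 also: surface plasmon resonance kinetics at 25 °C, diluted periplasmic extracts injected over immobilized ligand surfaces, 120 s association then 600–3600 s dissociation, running buffer containing 150 mM NaCl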
Protocol: as §1

human FcRn/b2M [5] = biological target: T1, human FcRn/b2M; test: SPR off-rate; pH 7.4 vs pH 6.0;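 also: surface plasmon resonance with diluted periplasmic extracts flowed over ligand surfaces, 120 s association and 600–3600 s dissociation at 25 °C, running buffer containing 150 mM NaCl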
Protocol: as §1

cyno FcRn/b2M [6] = biological target: T2, cyno FcRn/b2M; test: SPR off-rate; pH 7.4 vs pH 6.0;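 also: surface plasmon resonance with diluted periplasmic extracts flowed over ligand surfaces, 120 s association and 600–3600 s dissociation at 25 °C, running buffer containing 150 mM NaCl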
Protocol: as §1

T2 sequence (Q8SPV9 24-297 limits assumed, chain 1 of 2): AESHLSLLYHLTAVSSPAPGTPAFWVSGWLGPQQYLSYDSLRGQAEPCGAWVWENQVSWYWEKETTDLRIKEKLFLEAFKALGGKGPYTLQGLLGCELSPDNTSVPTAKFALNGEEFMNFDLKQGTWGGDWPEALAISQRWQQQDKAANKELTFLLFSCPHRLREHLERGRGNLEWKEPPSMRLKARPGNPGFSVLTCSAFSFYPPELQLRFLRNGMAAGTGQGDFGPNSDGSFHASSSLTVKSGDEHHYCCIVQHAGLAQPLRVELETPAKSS
T2 sequence (Q8SPW0 21-119 limits assumed, chain 2 of 2): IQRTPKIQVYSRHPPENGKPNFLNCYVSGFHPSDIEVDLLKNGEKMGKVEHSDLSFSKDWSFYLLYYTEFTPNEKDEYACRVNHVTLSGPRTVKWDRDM

koff (human FcRn/b2M [1]) | koff (cyno FcRn/b2M [2]) | koff (human FcRn/b2M [3]) | koff (cyno FcRn/b2M [4]) | kd ratio pH 7.4/6.0 (human FcRn/b2M [5]) | kd ratio pH 7.4/6.0 (cyno FcRn/b2M [6]) | Binder
0.032 s⁻¹ | 0.016 s⁻¹ | 0.00056 s⁻¹ | 0.00024 s⁻¹ | 57 | 68 | T0263018B11 S100M (VHH, name in Kabat numbering, FLAG3-His6 tagged) VHH: EVQLVESGGGVVQPGGSLRLSCAASGFTFSSYAMYWVRQAPGKGLEWVSAISSGGGSTDYADSVKGRFTISRDNSKNTLYLQMNSLRPEDTALYYCAADTLYTMLTWYSYWGQGTLVTVSS
0.0078 s⁻¹ | 0.0034 s⁻¹ | 0.00018 s⁻¹ | 9.4e-05 s⁻¹ | 44 | 36 | T0263018B11 S101E (VHH, name in Kabat numbering, FLAG3-His6 tagged) VHH: EVQLVESGGGVVQPGGSLRLSCAASGFTFSSYAMYWVRQAPGKGLEWVSAISSGGGSTDYADSVKGRFTISRDNSKNTLYLQMNSLRPEDTALYYCAADTLYTSLTWYEYWGQGTLVTVSS
0.024 s⁻¹ | 0.014 s⁻¹ | 0.00041 s⁻¹ | 0.00017 s⁻¹ | 59 | 80 | T0263018B11 T28W (VHH, name in Kabat numbering, FLAG3-His6 tagged) VHH: EVQLVESGGGVVQPGGSLRLSCAASGFWFSSYAMYWVRQAPGKGLEWVSAISSGGGSTDYADSVKGRFTISRDNSKNTLYLQMNSLRPEDTALYYCAADTLYTSLTWYSYWGQGTLVTVSS
0.12 s⁻¹ | 0.092 s⁻¹ | 0.0032 s⁻¹ | 0.0022 s⁻¹ | 38 | 42 | T0263018B11 T28V (VHH, name in Kabat numbering, FLAG3-His6 tagged) VHH: EVQLVESGGGVVQPGGSLRLSCAASGFVFSSYAMYWVRQAPGKGLEWVSAISSGGGSTDYADSVKGRFTISRDNSKNTLYLQMNSLRPEDTALYYCAADTLYTSLTWYSYWGQGTLVTVSS
0.045 s⁻¹ | 0.054 s⁻¹ | 0.0015 s⁻¹ | 0.0013 s⁻¹ | 30 | 42 | T0263018B11 T57P (VHH, name in Kabat numbering, FLAG3-His6 tagged) VHH: EVQLVESGGGVVQPGGSLRLSCAASGFTFSSYAMYWVRQAPGKGLEWVSAISSGGGSPDYADSVKGRFTISRDNSKNTLYLQMNSLRPEDTALYYCAADTLYTSLTWYSYWGQGTLVTVSS
0.032 s⁻¹ | 0.026 s⁻¹ | 0.00073 s⁻¹ | 0.00058 s⁻¹ | 43 | 45 | T0263018B11 S101V (VHH, name in Kabat numbering, FLAG3-His6 tagged) VHH: EVQLVESGGGVVQPGGSLRLSCAASGFTFSSYAMYWVRQAPGKGLEWVSAISSGGGSTDYADSVKGRFTISRDNSKNTLYLQMNSLRPEDTALYYCAADTLYTSLTWYVYWGQGTLVTVSS
0.13 s⁻¹ | 0.058 s⁻¹ | 0.0019 s⁻¹ | 0.00084 s⁻¹ | 68 | 69 | T0263018B11 S100Q (VHH, name in Kabat numbering, FLAG3-His6 tagged) VHH: EVQLVESGGGVVQPGGSLRLSCAASGFTFSSYAMYWVRQAPGKGLEWVSAISSGGGSTDYADSVKGRFTISRDNSKNTLYLQMNSLRPEDTALYYCAADTLYTQLTWYSYWGQGTLVTVSS
0.049 s⁻¹ | 0.033 s⁻¹ | 0.0011 s⁻¹ | 0.00044 s⁻¹ | 46 | 75 | T0263018B11 T28I (VHH, name in Kabat numbering, FLAG3-His6 tagged) VHH: EVQLVESGGGVVQPGGSLRLSCAASGFIFSSYAMYWVRQAPGKGLEWVSAISSGGGSTDYADSVKGRFTISRDNSKNTLYLQMNSLRPEDTALYYCAADTLYTSLTWYSYWGQGTLVTVSS
0.062 s⁻¹ | 0.058 s⁻¹ | 0.0017 s⁻¹ | 0.0013 s⁻¹ | 36 | 45 | T0263018B11 S101A (VHH, name in Kabat numbering, FLAG3-His6 tagged) VHH: EVQLVESGGGVVQPGGSLRLSCAASGFTFSSYAMYWVRQAPGKGLEWVSAISSGGGSTDYADSVKGRFTISRDNSKNTLYLQMNSLRPEDTALYYCAADTLYTSLTWYAYWGQGTLVTVSS
0.037 s⁻¹ | 0.03 s⁻¹ | 0.00086 s⁻¹ | 0.00062 s⁻¹ | 43 | 48 | T0263018B11 T57N (VHH, name in Kabat numbering, FLAG3-His6 tagged) VHH: EVQLVESGGGVVQPGGSLRLSCAASGFTFSSYAMYWVRQAPGKGLEWVSAISSGGGSNDYADSVKGRFTISRDNSKNTLYLQMNSLRPEDTALYYCAADTLYTSLTWYSYWGQGTLVTVSS
0.025 s⁻¹ | 0.019 s⁻¹ | 0.00057 s⁻¹ | 0.00036 s⁻¹ | 44 | 54 | T0263018B11 S101T (VHH, name in Kabat numbering, FLAG3-His6 tagged) VHH: EVQLVESGGGVVQPGGSLRLSCAASGFTFSSYAMYWVRQAPGKGLEWVSAISSGGGSTDYADSVKGRFTISRDNSKNTLYLQMNSLRPEDTALYYCAADTLYTSLTWYTYWGQGTLVTVSS
0.039 s⁻¹ | 0.033 s⁻¹ | 0.0015 s⁻¹ | 0.0012 s⁻¹ | 26 | 28 | T0263018B11 T28P (VHH, name in Kabat numbering, FLAG3-His6 tagged) VHH: EVQLVESGGGVVQPGGSLRLSCAASGFPFSSYAMYWVRQAPGKGLEWVSAISSGGGSTDYADSVKGRFTISRDNSKNTLYLQMNSLRPEDTALYYCAADTLYTSLTWYSYWGQGTLVTVSS
0.073 s⁻¹ | 0.062 s⁻¹ | 0.0018 s⁻¹ | 0.0013 s⁻¹ | 41 | 48 | T0263018B11 T28L (VHH, name in Kabat numbering, FLAG3-His6 tagged) VHH: EVQLVESGGGVVQPGGSLRLSCAASGFLFSSYAMYWVRQAPGKGLEWVSAISSGGGSTDYADSVKGRFTISRDNSKNTLYLQMNSLRPEDTALYYCAADTLYTSLTWYSYWGQGTLVTVSS
0.049 s⁻¹ | 0.06 s⁻¹ | 0.0015 s⁻¹ | 0.0014 s⁻¹ | 33 | 43 | T0263018B11 T57I (VHH, name in Kabat numbering, FLAG3-His6 tagged) VHH: EVQLVESGGGVVQPGGSLRLSCAASGFTFSSYAMYWVRQAPGKGLEWVSAISSGGGSIDYADSVKGRFTISRDNSKNTLYLQMNSLRPEDTALYYCAADTLYTSLTWYSYWGQGTLVTVSS
0.097 s⁻¹ | 0.069 s⁻¹ | 0.0019 s⁻¹ | 0.0009 s⁻¹ | 51 | 77 | T0263018B11 T28N (VHH, name in Kabat numbering, FLAG3-His6 tagged) VHH: EVQLVESGGGVVQPGGSLRLSCAASGFNFSSYAMYWVRQAPGKGLEWVSAISSGGGSTDYADSVKGRFTISRDNSKNTLYLQMNSLRPEDTALYYCAADTLYTSLTWYSYWGQGTLVTVSS
0.0012 s⁻¹ | 0.00086 s⁻¹ | 7e-05 s⁻¹ | 9.7e-05 s⁻¹ | 17 | 9 | T0263018B11 S101W (VHH, name in Kabat numbering, FLAG3-His6 tagged) VHH: EVQLVESGGGVVQPGGSLRLSCAASGFTFSSYAMYWVRQAPGKGLEWVSAISSGGGSTDYADSVKGRFTISRDNSKNTLYLQMNSLRPEDTALYYCAADTLYTSLTWYWYWGQGTLVTVSS
0.048 s⁻¹ | 0.037 s⁻¹ | 0.0011 s⁻¹ | 0.00068 s⁻¹ | 44 | 54 | T0263018B11 S101M (VHH, name in Kabat numbering, FLAG3-His6 tagged) VHH: EVQLVESGGGVVQPGGSLRLSCAASGFTFSSYAMYWVRQAPGKGLEWVSAISSGGGSTDYADSVKGRFTISRDNSKNTLYLQMNSLRPEDTALYYCAADTLYTSLTWYMYWGQGTLVTVSS
0.04 s⁻¹ | 0.035 s⁻¹ | 0.0011 s⁻¹ | 0.0009 s⁻¹ | 37 | 39 | T0263018B11 T57L (VHH, name in Kabat numbering, FLAG3-His6 tagged) VHH: EVQLVESGGGVVQPGGSLRLSCAASGFTFSSYAMYWVRQAPGKGLEWVSAISSGGGSLDYADSVKGRFTISRDNSKNTLYLQMNSLRPEDTALYYCAADTLYTSLTWYSYWGQGTLVTVSS
0.071 s⁻¹ | 0.042 s⁻¹ | 0.0012 s⁻¹ | 0.00053 s⁻¹ | 59 | 79 | T0263018B11 T28Y (VHH, name in Kabat numbering, FLAG3-His6 tagged) VHH: EVQLVESGGGVVQPGGSLRLSCAASGFYFSSYAMYWVRQAPGKGLEWVSAISSGGGSTDYADSVKGRFTISRDNSKNTLYLQMNSLRPEDTALYYCAADTLYTSLTWYSYWGQGTLVTVSS
0.025 s⁻¹ | 0.016 s⁻¹ | 0.00055 s⁻¹ | 0.00038 s⁻¹ | 45 | 43 | T0263018B11 S101Q (VHH, name in Kabat numbering, FLAG3-His6 tagged) VHH: EVQLVESGGGVVQPGGSLRLSCAASGFTFSSYAMYWVRQAPGKGLEWVSAISSGGGSTDYADSVKGRFTISRDNSKNTLYLQMNSLRPEDTALYYCAADTLYTSLTWYQYWGQGTLVTVSS
0.033 s⁻¹ | 0.036 s⁻¹ | 0.00099 s⁻¹ | 0.00084 s⁻¹ | 33 | 43 | T0263018B11 T57F (VHH, name in Kabat numbering, FLAG3-His6 tagged) VHH: EVQLVESGGGVVQPGGSLRLSCAASGFTFSSYAMYWVRQAPGKGLEWVSAISSGGGSFDYADSVKGRFTISRDNSKNTLYLQMNSLRPEDTALYYCAADTLYTSLTWYSYWGQGTLVTVSS

Reference: patent publication US20240132624A1 (Ablynx, published 2024)
